Results on 16 molecules are retold here after US20240116985A1 (published 2024).

Starred links: 1 amine or outer side, 2 acyl side, 3 side chain; linkers in the order of their positions; H or OH if unused. Positions of bridges follow the written chain, without caps; N, C: chain ends. Non-standard residues stand in square brackets, D forms with d. Primed or numbered codes have the meaning given here. B5(10) = 2-amino-2-(pent-4-en-1-yl)hept-6-enoic acid, bis(4-pentenyl)glycine, stitching residue bearing both staples, C=CCCCC(CCCC=C)(N[*:1])C(=O)[*:2]; B5(4) = 2,2-bis(4-pentenyl)glycine = 2-amino-2-(pent-4-en-1-yl)hept-6-enoic acid (stitching residue), C=CCCCC(CCCC=C)(N[*:1])C(=O)[*:2]; B5(5) = 2,2-bis(4-pentenyl)glycine, 2-amino-2-(pent-4-en-1-yl)hept-6-enoic acid (stitching residue), C=CCCCC(CCCC=C)(N[*:1])C(=O)[*:2]; B5(33) = 2-amino-2-(pent-4-en-1-yl)hept-6-enoic acid (bis-pentenylglycine, two olefin side chains), C=CCCCC(CCCC=C)(N[*:1])C(=O)[*:2]; B5(21) = 2-amino-2-(pent-4-en-1-yl)hept-6-enoic acid, bis(4-pentenyl)glycine (stitching residue), C=CCCCC(CCCC=C)(N[*:1])C(=O)[*:2]; TfeGA = (S)-2-amino-3-((carboxymethyl)(2,2,2-trifluoroethyl)amino)propanoic acid, O=C([C@H](CN(CC(=O)[*:3])CC(F)(F)F)N[*:1])[*:2]; PyrS2 = (S)-3-amino-1-((pent-4-en-1-yloxy)carbonyl)pyrrolidine-3-carboxylic acid, C=CCCCOC(=O)N1CC[C@@](N[*:1])(C(=O)[*:2])C1; SeN = (S)-5-(((allyloxy)carbonyl)(methyl)amino)-2-amino-2-methylpentanoic acid, C=CCOC(=O)N(C)CCC[C@](C)(N[*:1])C(=O)[*:2]; Qui = (S)-2-amino-3-(quinolin-2-yl)propanoic acid, O=C([C@H](Cc1ccc2ccccc2n1)N[*:1])[*:2]; B5 = 2-amino-2-(pent-4-en-1-yl)hept-6-enoic acid, C=CCCCC(CCCC=C)(N[*:1])C(=O)[*:2]; B5(28) = 2,2-bis(4-pentenyl)glycine, C=CCCCC(CCCC=C)(N[*:1])C(=O)[*:2]; 2NH2F″ = O=C([C@H](Cc1ccccc1N[*:3])N[*:1])[*:2]; S7 = C[C@@](CCCCCC=[*:3])(N[*:1])C(=O)[*:2]; Phe(2-Cl) = N[C@@H](Cc1ccccc1Cl)C(=O)O; 2Nal = N[C@@H](Cc1ccc2ccccc2c1)C(=O)O; Phe(2-Me) = Cc1ccccc1C[C@H](N)C(=O)O; Bta = N[C@@H](Cc1csc2ccccc12)C(=O)O; Lys(iPr) = CC(C)NCCCC[C@H](N)C(=O)O; αAllylPro = C=CC[C@@]1(C(=O)O)CCCN1; tBuAla = CC(C)(C)C[C@H](N)C(=O)O; Aad = N[C@@H](CCCC(=O)O)C(=O)O; S8 = C=CCCCCCC[C@](C)(N)C(=O)O; PyrS2(4) = not defined here; Aib = CC(C)(N)C(=O)O

First the molecules themselves.
T1: B-cat-Halo (beta-catenin HaloTag fusion expressed in HEK293 cells) (UniProt P35222 1-781)
T1 sequence (looked up): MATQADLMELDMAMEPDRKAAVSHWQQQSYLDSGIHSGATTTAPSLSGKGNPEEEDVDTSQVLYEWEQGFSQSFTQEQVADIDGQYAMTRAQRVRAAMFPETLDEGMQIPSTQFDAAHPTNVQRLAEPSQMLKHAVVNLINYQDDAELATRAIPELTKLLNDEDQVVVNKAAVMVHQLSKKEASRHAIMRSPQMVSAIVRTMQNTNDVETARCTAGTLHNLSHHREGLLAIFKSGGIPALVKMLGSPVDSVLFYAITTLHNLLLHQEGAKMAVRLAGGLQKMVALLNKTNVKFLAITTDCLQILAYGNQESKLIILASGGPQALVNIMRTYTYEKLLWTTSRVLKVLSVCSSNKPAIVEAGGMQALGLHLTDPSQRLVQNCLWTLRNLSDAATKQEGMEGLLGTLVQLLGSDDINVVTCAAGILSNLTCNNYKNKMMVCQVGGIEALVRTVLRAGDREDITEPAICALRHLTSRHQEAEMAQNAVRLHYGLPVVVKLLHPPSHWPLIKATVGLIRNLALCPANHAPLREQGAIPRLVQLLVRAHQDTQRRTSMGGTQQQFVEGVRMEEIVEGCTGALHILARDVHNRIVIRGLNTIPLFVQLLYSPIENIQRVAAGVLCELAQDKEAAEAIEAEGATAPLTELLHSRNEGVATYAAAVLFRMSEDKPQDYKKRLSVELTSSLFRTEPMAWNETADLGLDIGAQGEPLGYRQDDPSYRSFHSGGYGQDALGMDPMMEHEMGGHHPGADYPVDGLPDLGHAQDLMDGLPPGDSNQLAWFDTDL

T2: beta-catenin (full-length, Uniprot ID P35222) (Homo sapiens (Human), UniProt P35222 2-781)
T2 construct: The FP protocol says 'full-length beta-Catenin (Uniprot ID P35222)'; also called bCat; B-Catenin
T2 sequence: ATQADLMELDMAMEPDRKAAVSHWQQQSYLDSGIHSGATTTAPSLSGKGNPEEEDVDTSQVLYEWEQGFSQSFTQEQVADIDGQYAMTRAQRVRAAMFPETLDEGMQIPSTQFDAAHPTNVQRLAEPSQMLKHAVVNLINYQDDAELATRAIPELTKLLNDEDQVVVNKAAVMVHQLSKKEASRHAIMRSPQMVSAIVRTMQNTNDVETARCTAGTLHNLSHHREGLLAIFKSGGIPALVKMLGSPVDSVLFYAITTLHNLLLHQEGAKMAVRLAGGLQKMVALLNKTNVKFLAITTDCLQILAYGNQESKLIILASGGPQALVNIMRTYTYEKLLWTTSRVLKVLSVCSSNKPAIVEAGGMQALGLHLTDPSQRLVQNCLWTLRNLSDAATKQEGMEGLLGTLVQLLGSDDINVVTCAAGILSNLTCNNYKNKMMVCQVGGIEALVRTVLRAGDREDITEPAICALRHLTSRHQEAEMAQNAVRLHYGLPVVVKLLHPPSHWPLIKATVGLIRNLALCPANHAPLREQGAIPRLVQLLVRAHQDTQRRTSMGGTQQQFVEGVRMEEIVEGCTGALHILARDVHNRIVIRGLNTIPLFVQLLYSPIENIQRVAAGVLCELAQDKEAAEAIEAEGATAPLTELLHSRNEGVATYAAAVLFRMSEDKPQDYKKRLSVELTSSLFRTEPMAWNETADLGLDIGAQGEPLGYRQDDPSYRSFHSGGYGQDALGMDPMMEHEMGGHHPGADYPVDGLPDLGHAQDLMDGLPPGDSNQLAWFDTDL

T3: B-cat-Halo (UniProt P35222 1-781)
T3 sequence (looked up): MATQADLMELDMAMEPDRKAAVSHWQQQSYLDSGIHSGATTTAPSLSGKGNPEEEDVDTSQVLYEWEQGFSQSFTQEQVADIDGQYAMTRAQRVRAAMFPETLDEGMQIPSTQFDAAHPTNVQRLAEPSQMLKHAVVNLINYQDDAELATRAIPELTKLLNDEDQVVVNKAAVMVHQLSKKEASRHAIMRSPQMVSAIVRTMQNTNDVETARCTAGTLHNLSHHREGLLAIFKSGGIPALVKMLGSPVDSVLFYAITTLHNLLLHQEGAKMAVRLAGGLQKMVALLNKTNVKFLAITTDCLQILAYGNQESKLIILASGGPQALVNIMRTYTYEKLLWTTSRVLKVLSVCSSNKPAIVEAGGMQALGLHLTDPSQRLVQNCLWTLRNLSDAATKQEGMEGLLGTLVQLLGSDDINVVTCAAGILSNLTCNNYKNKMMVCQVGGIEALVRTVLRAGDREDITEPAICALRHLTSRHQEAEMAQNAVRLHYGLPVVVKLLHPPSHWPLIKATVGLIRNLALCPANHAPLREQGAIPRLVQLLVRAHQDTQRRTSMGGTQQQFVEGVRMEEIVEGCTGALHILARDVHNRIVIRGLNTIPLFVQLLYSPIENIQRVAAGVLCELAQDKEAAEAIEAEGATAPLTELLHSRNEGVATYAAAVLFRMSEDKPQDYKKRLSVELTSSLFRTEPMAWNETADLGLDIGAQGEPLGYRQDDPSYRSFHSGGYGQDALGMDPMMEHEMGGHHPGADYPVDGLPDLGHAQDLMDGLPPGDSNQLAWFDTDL

B1: I-133: Ac-PL3-Asp-Ala-B5-Asp-Glu-Ala-Ala-Phe-Val-S8-Phe-Trp-Aib-NH2 (peptide)
peptide: XDAXDEAAFVXFWX
modifications: not fully specified; N-terminal Ac; PL3 at 1; B5 at 4; S8 at 11; Aib at 14; C-terminal NH2; stapled by olefin metathesis (PL3-B5 and B5-S8)
notes: Stapled peptide
B2: I-127: Ac-PL3-Asp-Ala-B5-Asp-Gln-Ala-Ala-Phe-Val-S8-Phe-Trp-Gln-NH2 (peptide)
peptide: XDAXDQAAFVXFWQ
modifications: not fully specified; N-terminal Ac; PL3 at 1; B5 at 4; S8 at 11; C-terminal NH2; stapled by olefin metathesis (PL3-B5 and B5-S8)
notes: Stapled peptide
B3: I-1278 (peptide)
peptide: Ac-[αAllylPro]D[tBuAla][B5(5)]DDAAF[Lys(iPr)][PyrS2][Phe(2-Cl)][Bta]Q-NH2
modifications: staple 1-4, 4-11; not fully specified; printed as Ac-PL3-Asp-Npg-B5-Asp-Asp-Ala-Ala-Phe-iPrLys-PyrS2-2C1F-BztA-Gln-NH2

In the first assay the target is T1, B-cat-Halo (beta-catenin HaloTag fusion …). The assay can be described thus: cell-based or functional assay.
In the case of Ac-[αAllylPro]D[tBuAla][B5(4)]DDAA[2NH2F″]N[PyrS2(4)][Phe(2-Cl)][Bta]Q-NH2 (staple 1-4, 4-11; not fully specified; reading uncertain) [I-1727], the “NanoBRET Abs IC50” value stood at 34.1 µM. In the case of Ac-[αAllylPro]D[tBuAla][B5]D[TfeGA]AAFL[PyrS2][Phe(2-Me)][Bta]Q-NH2 (staple 1-4, 4-11; also: -CH=CH- in each staple reduced to -CH2-CH2-) [I-1726], the “NanoBRET Abs IC50” value was greater than 20 µM.

Another assay addresses T2, beta-catenin (full-length, Uniprot ID …). The assay can be described thus: fluorescence polarization competition vs 5FAM-TCF4(10-53) on full-length beta-catenin. As to the method:
The plate was incubated protected from light for 60 minutes at 20° C. prior to read. Reads were performed on a CLARIOstar plate reader (BMG Labtech) in duplicate, and data were fitted to a 1:1 binding model with hill slope using an in-house script. All provided concentrations are final concentrations.
On the technique in general: In fluorescence polarisation assays a small probe gives low polarisation when free and higher when bound to something large.
Usually IC50 stands for the concentration needed to halve the response being measured. High values mean a need for much substance, low ones inhibition by little substance. In turn, Ac-[αAllylPro]DA[B5(4)]DEAAFV[SeN]FWQ-NH2 (staple 1-4, 4-11, Stapled peptide) [I-131: Ac-PL3-Asp-Ala-B5-Asp-Glu-Ala-Ala-Phe-Val-SeN-Phe-Trp-Gln-NH2] came in with an IC50 of 2.16 µM. Still for that read-out and setting: for B1 the value was 5 µM; for Ac-[αAllylPro]DA[B5(4)]DEAAFV[S8]F[Qui]Q-NH2 (staple 1-4, 4-11, Stapled peptide) [I-143: Ac-PL3-Asp-Ala-B5-Asp-Glu-Ala-Ala-Phe-Val-S8-Phe-Qui-Gln-NH2], 2.27 µM. Still for that read-out and setting: for Ac-[αAllylPro]DA[B5(10)]D[Aad]AAFV[S8]FWQ-NH2 (staple 1-4, 4-11, Stapled peptide) [I-129: Ac-PL3-Asp-Ala-B5-Asp-Aad-Ala-Ala-Phe-Val-S8-Phe-Trp-Gln-NH2] the value was 1.98 µM. As for Ac-[αAllylPro]DA[B5(4)]DEAAFV[S8]FWQ-NH2 (staple 1-4, 4-11, Stapled (stitched) peptide) [I-123: Ac-PL3-Asp-Ala-B5-Asp-Glu-Ala-Ala-Phe-Val-S8-Phe-Trp-Gln-NH2], the IC50 was determined as 2.11 µM. Ac-[αAllylPro]DA[B5(33)]DNAAFV[S8]FWQ-NH2 (staple 1-4, 4-11, Stapled peptide) [I-125: Ac-PL3-Asp-Ala-B5-Asp-Asn-Ala-Ala-Phe-Val-S8-Phe-Trp-Gln-NH2] yielded an IC50 of 3.06 µM. Ac-[αAllylPro]DA[B5(4)]DEAAFV[S8]FWA-NH2 (staple 1-4, 4-11, Stapled peptide) [I-135: Ac-PL3-Asp-Ala-B5-Asp-Glu-Ala-Ala-Phe-Val-S8-Phe-Trp-Ala-NH2]: the IC50 was 1.87 µM. Molecule B2 registered an IC50 of 4.84 µM. Ac-[αAllylPro]DA[B5(28)]DEAAFV[S8]FW[Aib]-NH2 (staple 1-4, 4-11, Stapled peptide) [I-134: Ac-PL3-Asp-Ala-B5-Asp-Glu-Ala-Ala-Phe-Val-S8-Phe-Trp-Aib-NH2] gave an IC50 of 2.7 µM. Against the preceding molecule, the IC50 is about 1.8-fold lower. The same measure, in the same setting: to Ac-[αAllylPro]DA[B5]DEAAFV[S7]FWQ-NH2 (staple 1-4, 4-11, Stapled peptide) [I-132: Ac-PL3-Asp-Ala-B5-Asp-Glu-Ala-Ala-Phe-Val-S7-Phe-Trp-Gln-NH2] belongs 5 µM; to Ac-[αAllylPro]DA[B5(21)]DEAAFV[S8]F[2Nal]Q-NH2 (staple 1-4, 4-11, Stapled peptide) [I-140: Ac-PL3-Asp-Ala-B5-Asp-Glu-Ala-Ala-Phe-Val-S8-Phe-2NapA-Gln-NH2], 2.27 µM.

In a further assay the target is T3, B-cat-Halo. The assay can be described thus: cell-based or functional assay.
With B3, the “NanoBRET Abs IC50” value was 18 µM.

Ac-[αAllylPro]D[tBuAla][B5(10)]DDAAF[Lys(iPr)][PyrS2][Phe(2-Cl)][Bta]L-NH2 (staple 1-4, 4-11) [I-1280]: the “NanoBRET Abs IC50” value amounted to 24.7 µM. For Ac-[αAllylPro]D[tBuAla][B5(10)]DDAAF[Lys(iPr)][PyrS2][Phe(2-Cl)][Bta]T-NH2 (staple 1-4, 4-11) [I-1279], the “NanoBRET Abs IC50” value amounted to 22.9 µM.
